Test results: US20170073408A1 (Amgen, published 2017)
Where a chain is given by its changes, count along the chain named.

T1: BMP4 (UniProt P12644 293-408)
T1 construct: Bought
T1 sequence (looked up): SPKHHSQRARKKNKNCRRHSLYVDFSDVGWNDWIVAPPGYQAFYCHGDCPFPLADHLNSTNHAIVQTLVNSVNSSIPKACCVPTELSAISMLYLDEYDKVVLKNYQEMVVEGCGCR

T2: GDF-8 (UniProt O14793 267-375)
T2 construct: Bought
T2 sequence (looked up): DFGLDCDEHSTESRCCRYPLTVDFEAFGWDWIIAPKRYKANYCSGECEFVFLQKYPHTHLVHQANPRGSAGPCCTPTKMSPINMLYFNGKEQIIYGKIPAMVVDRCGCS

T3: GDF-11 (UniProt O95390 299-407)
T3 construct: Bought
T3 sequence (looked up): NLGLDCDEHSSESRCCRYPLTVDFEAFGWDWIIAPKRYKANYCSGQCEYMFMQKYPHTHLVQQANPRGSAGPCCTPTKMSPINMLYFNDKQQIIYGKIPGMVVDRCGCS

T4: TGF-β-3 (UniProt P10600 301-412)
T4 construct: Bought
T4 sequence (looked up): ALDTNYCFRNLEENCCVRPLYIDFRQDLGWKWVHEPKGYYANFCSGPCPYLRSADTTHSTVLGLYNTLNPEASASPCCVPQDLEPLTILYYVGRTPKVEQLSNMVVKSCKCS

T5: activin B (UniProt P09529 293-407)
T5 construct: Bought (R & D Systems)
T5 sequence (looked up): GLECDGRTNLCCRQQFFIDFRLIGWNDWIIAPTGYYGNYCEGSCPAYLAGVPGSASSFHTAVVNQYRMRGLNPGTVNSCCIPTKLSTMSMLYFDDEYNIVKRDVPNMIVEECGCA

T6: A/B13-39
T6 construct: also called Activin A 13/39 B
T6 activin A/B chimeric subunit: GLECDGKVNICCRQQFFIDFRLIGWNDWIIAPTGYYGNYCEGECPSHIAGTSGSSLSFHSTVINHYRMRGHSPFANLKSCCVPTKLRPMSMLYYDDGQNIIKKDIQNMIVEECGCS

B1: anti-activin A monoclonal antibody A1 (antibody, human IgG2, lambda, V domains shown)
VH: QVQLVQSGAEVKKPGASVKVSCKASGYTFTSYGLSWVRQAPGQGLEWMGWIIPYNGNTNSAQKLQGRVTMTTDTSTSTAYMELRSLRSDDTAVYFCARDRDYGVNYDAFDIWGQGTMVTVSS
VL: not shown
notes: Fully human antibody from XenoMouse hybridoma (strains giving IgG2 kappa or IgG4 kappa); also called L1H1; Mab A1
B2: recombinant human activin A (mature) (ligand)
chain: T6 activin A/B chimeric subunit with R13K, Q14K, I18V, D19S, R21K, L22D, T33S, Y36H, G37A
notes: also called r-HuActivin A; rhActivin A

Legend:
[1] = target: B2; test: cell-based or functional assay
BMP4 = target: T1, BMP4; test: BIAcore, antibody pre-incubated with ligand, ActRIIB/Fc on chip
Protocol: (§1) These assays were performed using BlAcore® technology, to determine the selectivity of binding of antibodies A1, A2 and A3 to various activins and other TGF-β family members, including activin A, activin B, activin AB, inhibin A, GDF-8, GDF-11, TGF-β-1, TGF-β-3, and BMP4 (all from R & D Systems). […] Because BlAcore assays detect changes in the refractive index, the difference between the response detected with injection over the immobilized receptor surfaces compared with the response detected with injection over the control surface in the absence of any antibody represents the actual binding of the various ligands to the receptor. With pre-incubation of antibodies and activin and TGF-β molecules, a change (increase or decrease) in binding response indicates antibody binding to the TGFβ family of molecules. The antibodies all bound to activin A but not to activin B, GDF-8, GDF-11, TGF-β-1, TGF-β-3, and BMP4, thus indicating specificity for activin A.

GDF-8 = target: T2, GDF-8; test: as above
Protocol: as §1

GDF-11 = target: T3, GDF-11; test: as above
Protocol: as §1

TGF-β-1 = target: T7, TGF-β-1 (UniProt P01137 279-390); test: as above
T7 construct: Bought
Protocol: as §1

TGF-β-3 = target: T4, TGF-β-3; test: as above
Protocol: as §1

activin B = target: T5, activin B; test: affinity analysis of Example 15 (antibody immobilized on a surface)
[2] = target: B2; test: affinity analysis of Example 15 (method of the KD not given)
[3] = target: B2; test: BIAcore blocking assay, 1 nM activin A; competitor rhActivin RIB/Fc chimera on chip
Protocol: (§2) Blocking assays were conducted on immobilized recombinant human activin RIB-Fc chimera surfaces, recombinant human activin RIIB-Fc chimera surfaces, and recombinant human RIIA-Fc chimera recombinant surfaces, as described in Example 5. Monoclonal antibodies A1, A2, AKA1, and AKA2 on each chimera surface were incubated with 1 nM activin A, and the relative binding response (%) was measured.

[4] = target: B2; test: BIAcore blocking assay, 1 nM activin A; competitor rhActivin RIIA/Fc chimera on chip
Protocol: as §2

[5] = target: B2; test: BIAcore blocking assay, 1 nM activin A; competitor rhActivin RIIB/Fc chimera on chip
Protocol: as §2

A/B13-39 = target: T6, A/B13-39; test: Biacore blocking: 100 nM antibody + diluted conditioned medium (CM) of the ligand over ActRIB-Fc surface
[6] = target: B2; test: Biacore blocking: 1 nM Activin A + antibody over rhActRIB-Fc chimera surface. No unit in the drawn table; M by Table 7, which prints this value rounded as 0.29 nM
A31-2 [7] = target: T8, A31-2; test: KinExA solution equilibrium, antibody A31 fixed at 30 pM
T8 construct: bars A52-1, A31-2, A30-2) make A3 likely; not assigned here
Protocol: (§3) Solution-based equilibrium-binding assays using KinExA™ technology (Sapidyne Instruments, Inc.) were used to determine the dissociation equilibrium (KD) of activin A binding to antibody molecules. This solution-based assay is considered to be more sensitive than the BIAcore assay in some instances. Reacti-Gel™ 6× was pre-coated with about 50 μg/ml activin A overnight, and then blocked with BSA. 30 pM and 100 pM of antibody samples were incubated with various concentrations (0.5 pM to 5 nM) of activin A in sample buffer at room temperature for 8 hours before being run through the activin A-coated beads. The amount of the bead-bound antibody was quantified by fluorescent (Cy5) labeled goat anti-human-Fc antibody at 1 mg/ml in superblock. The binding signal was proportional to the concentration of free antibody at equilibrium with a given activin A concentration. KD was obtained from the nonlinear regression of the competition curves using a dual-curve one-site homogeneous binding model provided in the KinEx ATM software (Sapidyne Instruments, Inc.). […] A2 and A3 bound to activin A at ˜15 pM and ˜8 pM, respectively.

A31-2 [8] = target: T8, A31-2; test: KinExA solution equilibrium, antibody A31 fixed at 100 pM
Protocol: as §3

[9] = target: B1; test: KinExA solution equilibrium, antibody A1 (A52) fixed at 30 pM
Protocol: as §3

[10] = target: T9, anti-activin A monoclonal antibody A2; test: KinExA solution equilibrium, antibody A2 (A30) fixed at 30 pM
T9 construct: Fully human antibody from XenoMouse hybridoma; also called L2H2
Protocol: as §3

[11] = target: B1; test: KinExA solution equilibrium, antibody A1 (A52) fixed at 100 pM
Protocol: as §3

[12] = target: T9, anti-activin A monoclonal antibody A2; test: KinExA solution equilibrium, antibody A2 (A30) fixed at 100 pM
Protocol: as §3

T9 sequence (VH, as listed by the source, chain 1 of 2): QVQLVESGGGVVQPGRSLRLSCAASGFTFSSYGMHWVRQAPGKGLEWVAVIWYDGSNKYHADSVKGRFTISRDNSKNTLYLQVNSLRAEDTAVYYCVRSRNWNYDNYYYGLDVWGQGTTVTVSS
T9 sequence (VL, as listed by the source, chain 2 of 2): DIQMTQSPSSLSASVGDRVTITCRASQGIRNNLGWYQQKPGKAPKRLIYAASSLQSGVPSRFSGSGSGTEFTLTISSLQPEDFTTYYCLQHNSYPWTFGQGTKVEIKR
T7 sequence (P01137 279-390 limits assumed): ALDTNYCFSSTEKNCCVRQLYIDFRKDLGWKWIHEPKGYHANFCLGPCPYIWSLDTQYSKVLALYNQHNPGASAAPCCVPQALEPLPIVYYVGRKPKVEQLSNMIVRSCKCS

Cell IC50 (nM); luciferase activity of C2C12/pMARE reporter cells, activin A fixed at 4 nM [1] [nM] | binding result (BMP4) | binding result (GDF-8) | binding result (GDF-11) | binding result (TGF-β-1) | binding result (TGF-β-3) | binding result (activin B) | Kd [2] [pM] | EC50 [3] [nM] | EC50 [4] [nM] | EC50 [5] [nM] | binding result (A/B13-39) | EC50 [6] [nM] | IC50 (read off the curve) (A31-2 [7]) [pM] | IC50 (read off the curve) (A31-2 [8]) [pM] | IC50 (read off the curve) [9] [pM] | IC50 (read off the curve) [10] [pM] | IC50 (read off the curve) [11] [pM] | IC50 (read off the curve) [12] [pM] | Binder
< 3 | no binding | no binding | no binding | no binding | no binding | no binding | ~3 | 0.29 | 0.29 | 0.29 | no binding (tested: 100 nM) | 0.29 |  |  |  |  |  |  | B1
 |  |  |  |  |  |  |  |  |  |  |  |  | ~30 | ~80 | ~20 | ~40 | ~70 | ~100 | B2
